Test results published in patent US20210087522.

What was measured:
[1] = target: T1, AFACP, ACP of the FAS from Anabaena
T1 chain: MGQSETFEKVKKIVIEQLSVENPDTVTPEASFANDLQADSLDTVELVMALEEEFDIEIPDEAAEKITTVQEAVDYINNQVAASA

[2] = target: T2, APACP, ACP of the glycolipid PKS in Anabaena
T2 chain: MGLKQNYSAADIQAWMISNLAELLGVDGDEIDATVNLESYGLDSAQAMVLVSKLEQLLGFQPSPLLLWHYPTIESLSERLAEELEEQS

[3] = target: T3, APNPCP, CP of an uncharacterized NRP/PK gene cluster from Anabaena
T3 chain: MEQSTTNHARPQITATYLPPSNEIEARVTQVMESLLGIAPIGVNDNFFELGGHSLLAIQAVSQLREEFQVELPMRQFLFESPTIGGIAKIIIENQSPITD

[4] = target: AprACP, ACP of the apratoxin (PK/NRP) gene cluster in Lyngbya sp.
[5] = target: T4, FNPCP, CP of an uncharacterized NRP gene cluster from Fischerella
T4 chain: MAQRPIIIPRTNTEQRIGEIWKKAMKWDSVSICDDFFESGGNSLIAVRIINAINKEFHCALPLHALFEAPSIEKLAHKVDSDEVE

[6] = target: T5, FNsACP, homolog of ArCPNp from Fischerella
T5 chain: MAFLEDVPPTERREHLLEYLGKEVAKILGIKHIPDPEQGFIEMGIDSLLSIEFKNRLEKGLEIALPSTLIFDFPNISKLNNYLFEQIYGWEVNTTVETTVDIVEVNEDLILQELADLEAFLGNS

[7] = target: T6, FisPCP, PCP of the shinorine gene cluster from Fischerella
T6 chain: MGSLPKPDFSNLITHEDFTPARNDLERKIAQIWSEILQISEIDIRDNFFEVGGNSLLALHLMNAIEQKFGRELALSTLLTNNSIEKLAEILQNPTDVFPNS

[8] = target: T7, MACP, CP of an uncharacterized NRP/PK gene cluster from M. aeruginosa NIES843
T7 chain: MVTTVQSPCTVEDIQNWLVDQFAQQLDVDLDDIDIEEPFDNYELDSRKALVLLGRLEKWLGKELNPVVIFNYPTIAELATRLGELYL

[9] = target: T8, SFACP, ACP of the FAS from Synechocystis
T8 chain: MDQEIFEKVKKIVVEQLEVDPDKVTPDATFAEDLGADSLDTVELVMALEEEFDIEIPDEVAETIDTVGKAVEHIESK

[10] = target: ScACP, ACP of a putative concanamycin gene cluster from Streptomyces coelicolor A(3)2
[11] = target: T9, SsPCP, PCP of a thaxtomin cluster from Streptomyces scabiei 87.22
T9 chain: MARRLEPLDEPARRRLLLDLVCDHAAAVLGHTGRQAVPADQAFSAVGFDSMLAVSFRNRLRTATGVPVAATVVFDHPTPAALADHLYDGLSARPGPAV

B1: SPPT, Sfp-like phosphopantetheinyl transferase (PPTase) from Synechocystis sp. PCC6803 (protein)
chain: MLPQPQIWLCPTDRPLIPGYQALLSSEEMARGERYQRPQDKQRFLTMRLALRILLARQLDCLPQQLQFTYGPQGKPELVDRERRSPWFNVAHSGNYGLIGLSTEGEIGVDLQIMLPKPHYLKLAKRFFAPQEVQQLESLEGEKRTKLFYQLWTAKEAFLKATGKGISGGLNQVIPDENLAKYQYLPDSGDTNHWRLSSQPLLADQGSNDNYWMAIAWCTNEVNQVESNYLPNIQPFQWPRNLDSLP
Km [1]: 13.3 µM
kcat [1]: 14.7 min⁻¹
kcat/Km [1]: 1.1 µM⁻¹ min⁻¹
phosphopantetheinylation of CP (apo to holo), LC-MS [1]: SPPT also phosphopantetheinylated all CP substrates except ScACP
relative conversion (most active PPTase = 100%) [1]: SPPT promoted >71% relative conversion of eight cyanobacterial CPs
Km [2]: 26.5 µM
kcat [2]: 14.6 min⁻¹
kcat/Km [2]: 0.5 µM⁻¹ min⁻¹
phosphopantetheinylation of CP (apo to holo), LC-MS [2]: SPPT also phosphopantetheinylated all CP substrates except ScACP
relative conversion (most active PPTase = 100%) [2]: SPPT promoted >71% relative conversion of eight cyanobacterial CPs
Km [3]: 17 µM
kcat [3]: 2.3 min⁻¹
kcat/Km [3]: 0.1 µM⁻¹ min⁻¹
phosphopantetheinylation of CP (apo to holo), LC-MS [3]: SPPT also phosphopantetheinylated all CP substrates except ScACP
Km [4]: 12.9 µM
kcat [4]: 13.1 min⁻¹
kcat/Km [4]: 1 µM⁻¹ min⁻¹
phosphopantetheinylation of CP (apo to holo), LC-MS [4]: SPPT also phosphopantetheinylated all CP substrates except ScACP
relative conversion (most active PPTase = 100%) [4]: SPPT promoted >71% relative conversion of eight cyanobacterial CPs
Km [5]: 7 µM
kcat [5]: 10.1 min⁻¹
kcat/Km [5]: 1.4 µM⁻¹ min⁻¹
phosphopantetheinylation of CP (apo to holo), LC-MS [5]: SPPT also phosphopantetheinylated all CP substrates except ScACP
Km [6]: 14.1 µM
kcat [6]: 1.5 min⁻¹
kcat/Km [6]: 0.1 µM⁻¹ min⁻¹
phosphopantetheinylation of CP (apo to holo), LC-MS [6]: SPPT also phosphopantetheinylated all CP substrates except ScACP
relative conversion (most active PPTase = 100%) [6]: SPPT promoted >71% relative conversion of eight cyanobacterial CPs
Km [7]: 10 µM
kcat [7]: 2.5 min⁻¹
kcat/Km [7]: 0.3 µM⁻¹ min⁻¹
phosphopantetheinylation of CP (apo to holo), LC-MS [7]: SPPT also phosphopantetheinylated all CP substrates except ScACP
Km [8]: 22 µM
kcat [8]: 4.3 min⁻¹
kcat/Km [8]: 0.2 µM⁻¹ min⁻¹
phosphopantetheinylation of CP (apo to holo), LC-MS [8]: SPPT also phosphopantetheinylated all CP substrates except ScACP
relative activity (most active PPTase = 100%) [8]: the low or no activity toward MACP, SsPCP and ScACP
Km [9]: 1.5 µM
kcat [9]: 1.4 min⁻¹
kcat/Km [9]: 0.39 µM⁻¹ min⁻¹
phosphopantetheinylation of CP (apo to holo), LC-MS [9]: SPPT also phosphopantetheinylated all CP substrates except ScACP
relative conversion (most active PPTase = 100%) [9]: SPPT promoted >71% relative conversion of eight cyanobacterial CPs
phosphopantetheinylation of CP (apo to holo), LC-MS; not modified [10]: SPPT also phosphopantetheinylated all CP substrates except ScACP
relative activity (most active PPTase = 100%) [10]: the low or no activity toward MACP, SsPCP and ScACP
Km [11]: 14.3 µM
kcat [11]: 1 min⁻¹
kcat/Km [11]: 0.06 µM⁻¹ min⁻¹
phosphopantetheinylation of CP (apo to holo), LC-MS [11]: SPPT also phosphopantetheinylated all CP substrates except ScACP
relative activity (most active PPTase = 100%) [11]: the low or no activity toward MACP, SsPCP and ScACP

B2: Sfp, phosphopantetheinyl transferase from Bacillus subtilis (protein)
chain: MKIYGIYMDRPLSQEENERFMTFISPEKREKCRRFYHKEDAHRTLLGDVLVRSVISRQYQLDKSDIRFSTQEYGKPCIPDLPDAHFNISHSGRWVIGAFDSQPIGIDIEKTKPISLEIAKRFFSKTEYSDLLAKDKDEQTDYFYHLWSMKESFIKQEGKGLSLPLDSFSVRLHQDGQVSIELPDSHSPCYIKTYEVDPGYKMAVCAAHPDFPEDITMVSYEELL
Km [1]: 11.6 µM
kcat [1]: 9.8 min⁻¹
kcat/Km [1]: 0.8 µM⁻¹ min⁻¹
phosphopantetheinylation of CP (apo to holo), LC-MS [1]: APPT, AvPPT, MPPT and Sfp functionalized all substrates
Km [2]: 15.3 µM
kcat [2]: 22.1 min⁻¹
kcat/Km [2]: 1.5 µM⁻¹ min⁻¹
phosphopantetheinylation of CP (apo to holo), LC-MS [2]: APPT, AvPPT, MPPT and Sfp functionalized all substrates
Km [3]: 12 µM
kcat [3]: 2.2 min⁻¹
kcat/Km [3]: 0.2 µM⁻¹ min⁻¹
phosphopantetheinylation of CP (apo to holo), LC-MS [3]: APPT, AvPPT, MPPT and Sfp functionalized all substrates
Km [4]: 9 µM
kcat [4]: 2.9 min⁻¹
kcat/Km [4]: 0.3 µM⁻¹ min⁻¹
phosphopantetheinylation of CP (apo to holo), LC-MS [4]: APPT, AvPPT, MPPT and Sfp functionalized all substrates
Km [5]: 11.7 µM
kcat [5]: 14.5 min⁻¹
kcat/Km [5]: 1.2 µM⁻¹ min⁻¹
phosphopantetheinylation of CP (apo to holo), LC-MS [5]: APPT, AvPPT, MPPT and Sfp functionalized all substrates
Km [6]: 10.9 µM
kcat [6]: 2.4 min⁻¹
kcat/Km [6]: 0.2 µM⁻¹ min⁻¹
phosphopantetheinylation of CP (apo to holo), LC-MS [6]: APPT, AvPPT, MPPT and Sfp functionalized all substrates
Km [7]: 14 µM
kcat [7]: 1.7 min⁻¹
kcat/Km [7]: 0.1 µM⁻¹ min⁻¹
phosphopantetheinylation of CP (apo to holo), LC-MS [7]: APPT, AvPPT, MPPT and Sfp functionalized all substrates
Km [8]: 6.7 µM
kcat [8]: 5.1 min⁻¹
kcat/Km [8]: 0.8 µM⁻¹ min⁻¹
phosphopantetheinylation of CP (apo to holo), LC-MS [8]: APPT, AvPPT, MPPT and Sfp functionalized all substrates
Km [9]: 2.5 µM
kcat [9]: 2.2 min⁻¹
kcat/Km [9]: 0.9 µM⁻¹ min⁻¹
phosphopantetheinylation of CP (apo to holo), LC-MS [9]: APPT, AvPPT, MPPT and Sfp functionalized all substrates
Km [10]: 8.3 µM
kcat [10]: 15.2 min⁻¹
kcat/Km [10]: 1.8 µM⁻¹ min⁻¹
phosphopantetheinylation of CP (apo to holo), LC-MS [10]: APPT, AvPPT, MPPT and Sfp functionalized all substrates
relative activity (most active PPTase = 100%) [10]: Among all PPTases, Sfp showed the highest relative activity toward ScACP and SsPCP
Km [11]: 7.9 µM
kcat [11]: 16.7 min⁻¹
kcat/Km [11]: 2.1 µM⁻¹ min⁻¹
phosphopantetheinylation of CP (apo to holo), LC-MS [11]: APPT, AvPPT, MPPT and Sfp functionalized all substrates
relative activity (most active PPTase = 100%) [11]: Among all PPTases, Sfp showed the highest relative activity toward ScACP and SsPCP
